To fix the notation:
B1: MLL5 (parent)
chain: HDDGYMICCDKCSVWQHIDCMGID
B2: CPXM2 (parent)
chain: TASTKNCMVGYDMGATRCDFTLSK
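Note: lentivirally expressed fusions sorted by FACS into six bins by GFP to DsRed ratio, PSI derived from sequencing read proportions per bin multiplied by bin number.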

One data set covers variants of B1. Briefly: protein stability index of a GFP-peptide fusion (GPS, HEK-293T) (PSI 1-6); higher = more stable. The note with it: c terminus: a fixed tail appended.
Turning to HDDGYMICCDKCSVWQHIDCMGIS [D24S], the protein stability index was determined as 2.35. Same read-out and setting: to HDDGYMICCDKCSVWQHIDCMGIA [D24A] belongs 2.17; to HDDGYMICCDKCSVWQHIDCMGIQ [D24Q], 2.47. The same measure, in the same setting: with HDDGYMICCDKCSVWQHIDCMGII [D24I] the figure was 2.21. Same read-out and setting: with HDDGYMICCDKCSVWQHIDCMGIE [D24E] the figure was 2.46. Turning to HDDGYMICCDKCSVWQHIDCMGIW [D24W], the protein stability index turned out to be 1.49. Still for that read-out and setting: to HDDGYMICCDKCSVWQHIDCMGIN [D24N] belongs 2.09. On to HDDGYMICCDKCSVWQHIDCMGIF [D24F], for which the protein stability index came to 1.89.

For the variant HDDGYMICCDKCSVWQHIDCMGIV [D24V], the protein stability index stood at 2.47. The same measure, in the same setting: to HDDGYMICCDKCSVWQHIDCMGIG [D24G] belongs 2.19; to HDDGYMICCDKCSVWQHIDCMGIC [D24C], 2.68; to HDDGYMICCDKCSVWQHIDCMGIK [D24K], 2.13.

As to HDDGYMICCDKCSVWQHIDCMGIP [D24P], the protein stability index stood at 2.

As for HDDGYMICCDKCSVWQHIDCMGIT [D24T], the protein stability index was found to be 1.94. Turning to HDDGYMICCDKCSVWQHIDCMGIY [D24Y], the protein stability index amounted to 1.61. Regarding HDDGYMICCDKCSVWQHIDCMGIL [D24L], the protein stability index was determined as 2.79. In the case of HDDGYMICCDKCSVWQHIDCMGIH [D24H], the protein stability index is 2.29. Consider HDDGYMICCDKCSVWQHIDCMGIR [D24R], for which the protein stability index is 1.93. Consider HDDGYMICCDKCSVWQHIDCMGIM [D24M], for which the protein stability index is 1.56. Regarding HDDGYMICCDKCSVWQHIDCTGID [M21T], the protein stability index was found to be 2.91. Same read-out and setting: with HDDGYMICCDKCSVWQHIDCYGID [M21Y] the figure was 2.21; with HDDGYMICCDKCSVWQHIDCWGID [M21W], 2.03. Same read-out and setting: to HDDGYMICCDKCSVWQHIDCVGID [M21V] belongs 2.34.

HDDGYMICCDKCSVWQHIDCSGID [M21S]: the protein stability index worked out at 2.41. Same read-out and setting: with HDDGYMICCDKCSVWQHIDCMGQD [I23Q] the figure was 2.89; with HDDGYMICCDKCSVWQHIDCMGMD [I23M], 2.36; with HDDGYMICCDKCSVWQHIDCMGGD [I23G], 2.95. The same measure, in the same setting: to HDDGYMICCDKCSVWQHIDCMGFD [I23F] belongs 2.1; to HDDGYMICCDKCSVWQHIDCMGPD [I23P], 2.5. Still for that read-out and setting: to HDDGYMICCDKCSVWQHIDCMGRD [I23R] belongs 2.83. For the variant HDDGYMICCDKCSVWQHIDCMGDD [I23D], the protein stability index stood at 2.71. On the same count and under the same terms, to HDDGYMICCDKCSVWQHIDCMGED [I23E] belongs 3.53; to HDDGYMICCDKCSVWQHIDCMGAD [I23A], 2.56.

As for HDDGYMICCDKCSVWQHIDCMGVD [I23V], the protein stability index was 2.95. With HDDGYMICCDKCSVWQHIDCMGLD [I23L], the protein stability index was 2.57. Consider HDDGYMICCDKCSVWQHIDCMGND [I23N], for which the protein stability index worked out at 2.52. The same measure, in the same setting: with HDDGYMICCDKCSVWQHIDCMGCD [I23C] the figure was 3.67; with HDDGYMICCDKCSVWQHIDCMGWD [I23W], 1.77. On the same count and under the same terms, with HDDGYMICCDKCSVWQHIDCMGTD [I23T] the figure was 2.85; with HDDGYMICCDKCSVWQHIDCMGYD [I23Y], 2.34; with HDDGYMICCDKCSVWQHIDCMGHD [I23H], 3.15. Still for that read-out and setting: to HDDGYMICCDKCSVWQHIDCMGSD [I23S] belongs 2.58. As for HDDGYMICCDKCSVWQHIDCMGKD [I23K], the protein stability index came to 2.99. On the same count and under the same terms, to HDDGYMICCDKCSVWQHIDCMEID [G22E] belongs 2.4; to HDDGYMICCDKCSVWQHIDCMLID [G22L], 1.81. Consider HDDGYMICCDKCSVWQHIDCMQID [G22Q], for which the protein stability index was found to be 2.17. Same read-out and setting: with HDDGYMICCDKCSVWQHIDCMWID [G22W] the figure was 2.06; with HDDGYMICCDKCSVWQHIDCMFID [G22F], 2.04. Consider HDDGYMICCDKCSVWQHIDCMIID [G22I], for which the protein stability index was 2.06.

In the case of HDDGYMICCDKCSVWQHIDCMKID [G22K], the protein stability index was 2.78.

For the variant HDDGYMICCDKCSVWQHIDCMCID [G22C], the protein stability index was found to be 3.79. Same read-out and setting: with HDDGYMICCDKCSVWQHIDCMRID [G22R] the figure was 2.43. Consider HDDGYMICCDKCSVWQHIDCMAID [G22A], for which the protein stability index is 2.2. HDDGYMICCDKCSVWQHIDCMTID [G22T]: the protein stability index turned out to be 2.19. Consider HDDGYMICCDKCSVWQHIDCMDID [G22D], for which the protein stability index was 3.8. Same read-out and setting: with HDDGYMICCDKCSVWQHIDCMYID [G22Y] the figure was 2.24; with HDDGYMICCDKCSVWQHIDCMSID [G22S], 2.14. On the same count and under the same terms, to HDDGYMICCDKCSVWQHIDCMNID [G22N] belongs 2.58; to HDDGYMICCDKCSVWQHIDCMVID [G22V], 1.59; to HDDGYMICCDKCSVWQHIDCMMID [G22M], 2.25. On the same count and under the same terms, with HDDGYMICCDKCSVWQHIDCMPID [G22P] the figure was 2.39. On to HDDGYMICCDKCSVWQHIDCMHID [G22H], for which the protein stability index was determined as 2.79.

The variants in a further data set derive from B2. The data set is described as above. The following applies: c terminus: a fixed tail appended.
As to TASTKNCMVGYDMGATRCDFTLSY [K24Y], the protein stability index worked out at 2.73. As to TASTKNCMVGYDMGATRCDFTLSR [K24R], the protein stability index came out at 1.56. On the same count and under the same terms, with TASTKNCMVGYDMGATRCDFTLSG [K24G] the figure was 1.78; with TASTKNCMVGYDMGATRCDFTLSM [K24M], 2.85. The same measure, in the same setting: to TASTKNCMVGYDMGATRCDFTLSP [K24P] belongs 2.35.

With TASTKNAMVGYDMGATRCDFTLSK [C7A], the protein stability index worked out at 3.74. Still for that read-out and setting: to TASTKNNMVGYDMGATRCDFTLSK [C7N] belongs 3.84.

On to TASTKNDMVGYDMGATRCDFTLSK [C7D], for which the protein stability index came to 4.

Turning to TASTKNGMVGYDMGATRCDFTLSK [C7G], the protein stability index was found to be 3.75. As for TASTKNCMVGYDMWATRCDFTLSK [G14W], the protein stability index amounted to 2.15. Still for that read-out and setting: with TASTKNCMVGYDMQATRCDFTLSK [G14Q] the figure was 2.44.

Consider TASTSNCMVGYDMGATRCDFTLSK [K5S], for which the protein stability index was 2.63. Same read-out and setting: to TASTDNCMVGYDMGATRCDFTLSK [K5D] belongs 3.25; to TASTQNCMVGYDMGATRCDFTLSK [K5Q], 2.4.

Turning to TASTVNCMVGYDMGATRCDFTLSK [K5V], the protein stability index came to 2.42. On to TASTLNCMVGYDMGATRCDFTLSK [K5L], for which the protein stability index stood at 2.29. Turning to TASTKNCMVGYDMGATRDDFTLSK [C18D], the protein stability index worked out at 2.98. Still for that read-out and setting: to TASTKNCMVGYDMGATRRDFTLSK [C18R] belongs 2.68; to TASTKNCMVGYDMGATRWDFTLSK [C18W], 3.08; to TASTKNCMVGYDMGATRIDFTLSK [C18I], 2.84.

Turning to TASTKNCMVGYDMGATRMDFTLSK [C18M], the protein stability index worked out at 2.59.

As to TASTKNCMVGYDMGATRVDFTLSK [C18V], the protein stability index was 2.19. With TASTKNCMVGYDMGATRNDFTLSK [C18N], the protein stability index turned out to be 2.43. Same read-out and setting: to TASTKNCMVGYDMGATRCDFVLSK [T21V] belongs 2.48.

For the variant TASTKNCMVGYDMGATRCDFMLSK [T21M], the protein stability index was 1.95. On the same count and under the same terms, to TASTKNCMVGYDMGATRCDFELSK [T21E] belongs 3.16; to TASTKNCMVGYDMGATRCDFGLSK [T21G], 2.48. Same read-out and setting: with TASTKNCMVGYDMGATRCDFTLFK [S23F] the figure was 1.55; with TASTKNCMVGYDMGATRCDFTLWK [S23W], 1.86; with TASTKNCMVGYDMGATRCDFTLAK [S23A], 3.47. In the case of TASTKNCMVGYDMGATRCDFTLLK [S23L], the protein stability index was found to be 2.67.

For TASTKNCMVGYDMGATRCDFTLYK [S23Y], the protein stability index was found to be 2.01.
